Test results as given in US7148021B2, “Human zona pellucida proteins and methods of their use in diagnosing male infertility” (Eastern Virginia Meical School, priority 2001, dated 2006).

B1: rhZP3: recombinant human zona pellucida protein 3 made by human ovarian cell line PA-1, correctly glycosylated (protein, listed as Homo sapiens)
chain: MELSYRLFICLLLWGSTELCYPQPLWLLQGGASHPETSVQPVLVECQEATLMVMVSKDLFGTGKLIRAADLTLGPEACEPLVSMDTEDVVRFEVGLHECGNSMQVTDDALVYSTFLLHDPRPVGNLSIVRTNRAEIPIECRYPRQGNVSSQAILPTWLPFRTTVFSEEKLTFSLRLMEENWNAEKRSPTFHLGDAAHLQAEIHTGSHVPLRLFVDHCVATPTPDQNASPYHTIVDFHGCLVDGLTDASSAFKVPRPGPDTLQFTVDVFHFANDSRNMIYITCHLKVTLAEQDPDELNKACSFSKPSNSWFPVEGPADICQCCNKGDCGTPSHSRRQPHVMSQWSRSASRNRRHVTEEADVTVGPLIFLDRRGDHEVEQWALPSDTSVVLLGVGLAVVVSLTLTAVILVLTRRCRTASHPVSASE
modifications: recombinant, glycosylated, made in PA-1 cells
notes: recombinant human zona pellucida protein 3 made by human ovarian cell line PA-1, correctly glycosylated

Legend:
sperm [1] = assay: Weighted acrosome scoring of fluorescence-stained sperm morphology types; format: cell-based, human; conditions: for % of Type I (intact acrosome): column drawing 1; for % of Type II (damaged acrosome): column drawing 2; for % of Type III (equatorial segment): column drawing 3; for % of Type IV (no fluorescence in head): column drawing 4
Source text: A representative example of this method is as follows. […] (See Arts et al, 1994 for further details useful for this example).
In a second step, each type is given a score. In this example, Type I has fluorescence in the acrosomal region, indicating intact acrosome; Type II has fluorescence in a clearly damaged acrosome; Type III has fluorescence in the equatorial segment; and Type IV has no detectable fluorescence in the head. Each type, in the representative example is given a score as follow. Type I has 0 points, Type II has 1 point, Type III has 1.5 points and Type IV has 2 points. Of course different numbers of types may be scored and different weighting systems may be used, depending on knowledge of the system used and the conditions and reagents used for scoring each type. In this example, the sperm are examined under a fluorescence microscope and the percentage of each category is recorded. To determine the total AR score, the percentage of each category type is multiplied by the appropriate point and added together as shown in the equation below and in […]

sperm [2] = assay: Percentage of acrosome-reacted sperm as determined by FITC-PSA; format: cell-based, human; conditions: NT 30 ng/ml, calcium ionophore 5 μM, rhZP3 30 ng/ml, solubilized zona 0.5 ZP/μl, Mean (±SEM); for % Acrosome reacted-sperm: n = 29 ejaculates
Source text: The acrosome reaction was studied in response to purified rhZP3, natural solubilized human ZP and the calcium ionophore.

[3] = tested on: sperm-zona pellucida binding; assay: Hemizona assay, inhibition of sperm-zona pellucida binding; format: cell-based, human
Source text: Isolation and purification procedures A wide variety of isolation and purification procedures for ZP3, ZP2, ZP1 as whole proteins, glycosylated fragments, complexes, conjugates and as fusion proteins may be used in embodiments of the invention. […] Furthermore, data were obtained that establish the ability of rhZP3 to induce the sperm acrosomal reaction. […] Each of the techniques most preferably uses a human glycosylated ZP3 and/or ZP2 and/or ZP1.
This procedure was used to evaluate recombinant human ZP3 as described above.
The hemizona assay is employed as a parallel assay to evaluate the binding ability of GFP-rhZP3 coated agarose beads. An aliquot of semen is processed as described above. Both sperm and artificial zona are processed as described above. For each hemizona pair, the HZI was calculated as follows: (number of test sperm bound to the hemizona/number of fertile sperm bound to hemizona)×100. […]
A hemizona assay is to be carried out as a parallel assay to evaluate the binding ability of GFP-rhZP3 coated agarose beads. […] After capacitation, sperm sample are ready for use in a HZA. […] The number of sperm tightly bound to the outer surface are counted. For each hemizona pair, the HZI is calculated as follows: (number of test sperm bound to the hemizona/number of fertile sperm bound to hemizona)×100 (Burkman, et al.,1988). […]

human sperm [4] = assay: Acrosome reaction by rhZP3 after sperm capacitation time course; format: cell-based; conditions: 30 ng/mL, 4 hours capacitation
Procedure: The time course study of sperm capacitation in combination with rhZP3 was evaluated. After different periods of capacitation, sperm were treated with rhZP3 (30 ng/ml) for thirty minutes to trigger the acrosome reaction. […] In many embodiments with rhZP3 an approximate 4 hour capacitation time is preferred because at this time frame the sperm are 99% alive as compared to 86%, 82% and 66% of live sperm for 8, 12 and 24 hours of capacitation time respectively. Experiments were performed after 4 hours of capacitation. The ratio of acrosome-reacted spermatozoa increased by 1.5 fold, after incubation with 30 ng/mL rhZP3, as compared to controlled conditions. This increased activity is much stronger than the increased activity produced after incubation with rhZP3 made by CHO cells. The CHO cell product induced a similar percentage of acrosome reaction in human sperm following 24-hour sperm capacitation at a dose of 15–20 ng/μl (van Duin et al, 1994).

human sperm [5] = conditions: 30 ng/mL; cited from earlier work
[6] = tested on: sperm-zona pellucida binding; conditions: hemizona assay; cited from earlier work

Molecule | AR percentage (sperm [1]) | Score Type I (0 × %) (sperm [1]) | Score Type II (1 × %) (sperm [1]) | Score Type III (1.5 × %) (sperm [1]) | Score Type IV (2 × %) (sperm [1]) | Total AR score (sperm [1]) | % of Type I (intact acrosome) (sperm [1]) | % of Type II (damaged acrosome) (sperm [1]) | % of Type III (equatorial segment) (sperm [1]) | % of Type IV (no fluorescence in head) (sperm [1]) | % Sperm viability (sperm [2]) | % Acrosome reacted-sperm (sperm [2]) | hemizona index, in words [3] | increase of ratio of acrosome-reacted spermatozoa compared to control conditions (human sperm [4]) | live acrosome-reacted sperm (human sperm [5]) | minimally effective dose for sperm-zona pellucida binding inhibition [6]
CNc1ccc2oc(C[C@H]3O[C@@]4(CC[C@H]3C)O[C@H]([C@H](C)C(=O)c3ccc[nH]3)[C@H](C)C[C@H]4C)nc2c1C(=O)O [Calcium ionophore, reference compound] | 32% | 0 | 7 | 27 | 30 | 64 | 60% | 7% | 18% | 15% | 96.5 (2.0) % | 22.5% |  |  |  | 
B1 | 29% | 0 | 12 | 33 | 14 | 59 | 59% | 12% | 22% | 7% |  | 18.3% | dramatically decreasing the hemizona index | 1.5 fold | 19%±4.1% | 30 ng/mL
